Experimental data reported in the supplement of paper PMC10567573.

B1: ZNF207 (parent)
chain: YQGGPPRPPMGMRPPVMSQGGRY

Variants of: B1
Experiment: protein stability index of a GFP-peptide fusion (GPS, HEK-293T) (PSI 1-6); higher = more stable
Conditions: c terminus: native
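Further: lentivirally expressed fusions sorted by FACS into six bins by GFP to DsRed ratio, PSI derived from sequencing read proportions per bin multiplied by bin number.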

Going from YQGGPPRPPMGMRPPVGSQGGRY to YQGGPPRPPMGMRPPVKSQGGRY, the protein stability index rises from 2.42 to 2.85.

Compared with YQGGPPRPPMGMRPPVDSQGGRY, YQGGPPRPPMGMRPPVFSQGGRY is lower in protein stability index: 2.86 for the first, 2.17 for the second.

Compared with YQGGPPRPPMGMRPPVCSQGGRY, YQGGPPRPPHGMRPPVMSQGGRY is lower in protein stability index: 4 for the first, 2.34 for the second.

Going from YQGGPPRPPIGMRPPVMSQGGRY to YQGGPPRPPQGMRPPVMSQGGRY, the protein stability index falls from 3.45 to 2.14.

First: YQGGPPRPPNGMRPPVMSQGGRY
Second: YQGGPPRPPVGMRPPVMSQGGRY
The protein stability index of the first is lower: 1.82 for the first, 2.57 for the second.

Compared with YQGGPPRPPLGMRPPVMSQGGRY, YQGGPPRPPSGMRPPVMSQGGRY is higher in protein stability index: 1.4 for the first, 2.1 for the second.

First: YQGGPPRPPMCMRPPVMSQGGRY
Second: YQGGPPRPPMYMRPPVMSQGGRY
The protein stability index of the first is lower: 1.81 for the first, 2.14 for the second.

First: YQGGPPRPPMIMRPPVMSQGGRY
Second: YQGGPPRPPMSMRPPVMSQGGRY
The protein stability index of the first is higher: 2.95 for the first, 1.52 for the second.

Compared with YQGGPPRPPMNMRPPVMSQGGRY, YQGGPPRPPMLMRPPVMSQGGRY is lower in protein stability index: 1.97 for the first, 1.82 for the second.

Compared with YQGGPPRPPMPMRPPVMSQGGRY, YQGGPPRPPMHMRPPVMSQGGRY is lower in protein stability index: 1.6 for the first, 1.43 for the second.

Going from YQGGPPRPPMGMRAPVMSQGGRY to YQGGPPRPPMGMRGPVMSQGGRY, the protein stability index rises from 1.47 to 2.35.

Going from YQGGPPRPPMGMRKPVMSQGGRY to YQGGPPRPPMGMRCPVMSQGGRY, the protein stability index rises from 1.43 to 2.27.

Going from YQGGPQRPPMGMRPPVMSQGGRY to YQGGPYRPPMGMRPPVMSQGGRY, the protein stability index falls from 2.2 to 1.78.

Compared with YQGGPGRPPMGMRPPVMSQGGRY, YQGGPNRPPMGMRPPVMSQGGRY is higher in protein stability index: 2.07 for the first, 2.59 for the second.

Compared with YQGGPSRPPMGMRPPVMSQGGRY, YQGGPTRPPMGMRPPVMSQGGRY is lower in protein stability index: 2.45 for the first, 2.06 for the second.

First: YQGGPERPPMGMRPPVMSQGGRY
Second: YQGGPMRPPMGMRPPVMSQGGRY
The protein stability index of the first is higher: 2.95 for the first, 2.19 for the second.

First: YQGGPKRPPMGMRPPVMSQGGRY
Second: YQGGPHRPPMGMRPPVMSQGGRY
The protein stability index of the first is higher: 2.91 for the first, 2.23 for the second.

First: YQGGPLRPPMGMRPPVMSQGGRY
Second: YQGGPDRPPMGMRPPVMSQGGRY
The protein stability index of the first is lower: 2.58 for the first, 2.73 for the second.

Going from YQGGPIRPPMGMRPPVMSQGGRY to YQGGPPRPPMGMMPPVMSQGGRY, the protein stability index falls from 2.49 to 2.1.

Compared with YQGGPPRPPMGMWPPVMSQGGRY, YQGGPPRPPMGMIPPVMSQGGRY is higher in protein stability index: 1.79 for the first, 2.76 for the second.

Going from YQGGPPRPPMGMSPPVMSQGGRY to YQGGPPRPPMGMFPPVMSQGGRY, the protein stability index rises from 1.96 to 2.23.

Compared with YQGGPPRNPMGMRPPVMSQGGRY, YQGGPPRHPMGMRPPVMSQGGRY is higher in protein stability index: 2.49 for the first, 2.98 for the second.

First: YQGGPPRIPMGMRPPVMSQGGRY
Second: YQGGPPRKPMGMRPPVMSQGGRY
The protein stability index of the first is lower: 2.2 for the first, 2.35 for the second.

Going from YQGGPPRCPMGMRPPVMSQGGRY to YQGGPPRSPMGMRPPVMSQGGRY, the protein stability index rises from 1 to 1.95.

Compared with YQGGPPRVPMGMRPPVMSQGGRY, YQGGPPRAPMGMRPPVMSQGGRY is lower in protein stability index: 1.57 for the first, 1.09 for the second.

Going from YQGGPPRPPMGERPPVMSQGGRY to YQGGPPRPPMGKRPPVMSQGGRY, the protein stability index falls from 2.88 to 2.34.

Compared with YQGGPPRPPMGSRPPVMSQGGRY, YQGGPPRPPMGGRPPVMSQGGRY is lower in protein stability index: 2.64 for the first, 2.05 for the second.

Compared with YQGGPPRPPMGRRPPVMSQGGRY, YQGGPPRPPMGTRPPVMSQGGRY is higher in protein stability index: 1.35 for the first, 2.64 for the second.

First: YQGGPPRPPMGVRPPVMSQGGRY
Second: YQGGPPRPPMGIRPPVMSQGGRY
The protein stability index of the first is higher: 2.79 for the first, 2.25 for the second.

First: YQGGPPRPMMGMRPPVMSQGGRY
Second: YQGGPPRPNMGMRPPVMSQGGRY
The protein stability index of the first is lower: 1.12 for the first, 1.44 for the second.

Going from YQGGPPRPRMGMRPPVMSQGGRY to YQGGPPRPHMGMRPPVMSQGGRY, the protein stability index falls from 1.87 to 1.41.

Going from YQGGPPRPTMGMRPPVMSQGGRY to YQGGPPRPIMGMRPPVMSQGGRY, the protein stability index rises from 2.49 to 2.91.

First: YQGGPPRPWMGMRPPVMSQGGRY
Second: YQGGPPRPKMGMRPPVMSQGGRY
The protein stability index of the first is higher: 4.64 for the first, 1.73 for the second.

First: YQGGPPRPAMGMRPPVMSQGGRY
Second: YQGGPPRPLMGMRPPVMSQGGRY
The protein stability index of the first is higher: 1.83 for the first, 1.28 for the second.

Compared with YQGGPPRPGMGMRPPVMSQGGRY, YQGGPPRPVMGMRPPVMSQGGRY is lower in protein stability index: 2.84 for the first, 1.68 for the second.

Compared with YQGGPPRPPMGMRPPNMSQGGRY, YQGGPPRPPMGMRPPIMSQGGRY is lower in protein stability index: 2.65 for the first, 2.03 for the second.

First: YQGGPPRPPMGMRPPWMSQGGRY
Second: YQGGPPRPPMGMRPPCMSQGGRY
The protein stability index of the first is lower: 1.75 for the first, 2.44 for the second.

Compared with YQGGPPRPPMGMRPPFMSQGGRY, YQGGPPRPPMGMRPPKMSQGGRY is higher in protein stability index: 2.18 for the first, 2.93 for the second.

Compared with YQGGPPRPPMGMRPPHMSQGGRY, YQGGPPEPPMGMRPPVMSQGGRY is higher in protein stability index: 2.71 for the first, 3.09 for the second.

First: YQGGPPMPPMGMRPPVMSQGGRY
Second: YQGGPPSPPMGMRPPVMSQGGRY
The protein stability index of the first is lower: 1.51 for the first, 2.98 for the second.

First: YQGGPPKPPMGMRPPVMSQGGRY
Second: YQGGPPIPPMGMRPPVMSQGGRY
The protein stability index of the first is higher: 2.71 for the first, 1.92 for the second.

Going from YQGGPPLPPMGMRPPVMSQGGRY to YQGGPPGPPMGMRPPVMSQGGRY, the protein stability index rises from 1.7 to 2.8.

First: YQGGPPVPPMGMRPPVMSQGGRY
Second: YQGGPPCPPMGMRPPVMSQGGRY
The protein stability index of the first is higher: 1.66 for the first, 1.23 for the second.

Compared with YQGGPPRPPMGMRPVVMSQGGRY, YQGGPPRPPMGMRPEVMSQGGRY is lower in protein stability index: 3.12 for the first, 2.2 for the second.

First: YQGGPPRPPMGMRPRVMSQGGRY
Second: YQGGPPRPPMGMRPSVMSQGGRY
The protein stability index of the first is lower: 2.07 for the first, 2.23 for the second.

First: YQGGPPRPPMGMRPKVMSQGGRY
Second: YQGGPPRPPMGMRPFVMSQGGRY
The protein stability index of the first is lower: 1.09 for the first, 1.58 for the second.

Going from YQGGPPRPPMGMRPNVMSQGGRY to YQGGPPRPPMGMRPQVMSQGGRY, the protein stability index rises from 1.72 to 2.65.

Compared with YQGGPPRPPMGMRPTVMSQGGRY, YQGGPPRPPMGMRPDVMSQGGRY is higher in protein stability index: 1.61 for the first, 2.27 for the second.

Work on YQGGPPRPPMGMRPHVMSQGGRY yielded a protein stability index of 2.71.
